We go through 15 molecules from patent US20190309072A1 (published 2019).

The chains are these.
T1: human ITGa3 protein (human, UniProt P26006 33-991)
T1 chain: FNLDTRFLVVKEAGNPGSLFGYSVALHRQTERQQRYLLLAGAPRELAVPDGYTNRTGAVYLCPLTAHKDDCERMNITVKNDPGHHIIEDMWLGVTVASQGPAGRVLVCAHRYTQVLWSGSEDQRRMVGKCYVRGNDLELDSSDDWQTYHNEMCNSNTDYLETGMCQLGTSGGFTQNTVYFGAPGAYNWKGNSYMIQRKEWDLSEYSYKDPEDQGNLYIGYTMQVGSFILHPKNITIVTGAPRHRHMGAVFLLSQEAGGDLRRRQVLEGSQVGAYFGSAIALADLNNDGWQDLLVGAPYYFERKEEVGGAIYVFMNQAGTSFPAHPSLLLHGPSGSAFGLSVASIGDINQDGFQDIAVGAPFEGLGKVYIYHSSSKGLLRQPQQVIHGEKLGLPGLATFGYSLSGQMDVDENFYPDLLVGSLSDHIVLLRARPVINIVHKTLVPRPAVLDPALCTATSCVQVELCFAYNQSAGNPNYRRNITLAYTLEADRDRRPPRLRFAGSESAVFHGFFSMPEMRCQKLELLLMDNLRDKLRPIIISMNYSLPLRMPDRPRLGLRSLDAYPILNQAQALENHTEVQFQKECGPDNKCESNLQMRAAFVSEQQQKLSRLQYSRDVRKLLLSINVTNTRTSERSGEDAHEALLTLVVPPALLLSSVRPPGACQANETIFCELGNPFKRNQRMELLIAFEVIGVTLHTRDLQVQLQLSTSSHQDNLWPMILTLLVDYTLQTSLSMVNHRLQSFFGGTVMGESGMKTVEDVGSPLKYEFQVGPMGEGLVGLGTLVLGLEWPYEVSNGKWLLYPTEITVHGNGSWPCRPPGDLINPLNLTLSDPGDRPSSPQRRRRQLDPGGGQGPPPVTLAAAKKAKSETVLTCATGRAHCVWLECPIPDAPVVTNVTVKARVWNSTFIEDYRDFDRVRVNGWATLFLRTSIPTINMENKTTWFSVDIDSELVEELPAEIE

B1: Lc1/Hc1S (VH of SEQ ID NO: 4 and VL of SEQ ID NO: 12) (antibody, V domains shown)
VH: QVQLVQSGAEVKKPGSSVKVSCKASGYTFTEYIIHWVRQAPGQGLEWIGWFYPESGSVKYSETFKGRATLTADKSTSTAYMELSSLRSEDTAVYYCARHEERDYYGYYAMDYWGQGTTVTVSS
VL: DIQMTQSPSSLSASVGDRVIITCSASSSISSNYLHWYQQKPGKVPKLLIYRTSNLASGVPSRFSGSGSGTDYTLTISSLQPEDVATYYCQQGSSIPRFTSGGGTKVEIK
B2: Lc2/Hc2S (antibody, V domains shown)
VH: QVQLVQSGAEVKKPGSSVKVSCKASGYTFTEYIIHWVRQAPGQGLEWIGWFYPESGSVKYSETFKGRATITADKSTSTAYMELSSLRSEDTAVYYCARHEERDYYGYYAMDYWGQGTTVTVSS
VL: DIQMTQSPSSLSASVGDRVIITCSASSSISSNYLHWYQQKPGKVPKLLIYRTSNLASGVPSRFSGSGSGTDYTLTISSLQPEDVATYYCQQGSSIPRFTSGGGTKVEIK
B3: Lc1/Hc1 (antibody, V domains shown)
VH: QVQLVQSGAEVKKPGSSVKVSCKASGYTFTEYIIHWVRQAPGQGLEWIGWFYPESGSVKYNETFKGRATLTADKSTSTAYMELSSLRSEDTAVYYCARHEERDYYGYYAMDYWGQGTTVTVSS
VL: DIQMTQSPSSLSASVGDRVTITCSASSSISSNYLHWYQQKPGKVPKLLIYRTSNLASGVPSRFSGSGSGTDYTLTISSLQPEDVATYYCQQGSSIPRFTSGGGTKVEIK
B4: Lc1/Hc2 (antibody, V domains shown)
VH: QVQLVQSGAEVKKPGSSVKVSCKASGYTFTEYIIHWVRQAPGQGLEWIGWFYPESGSVKYNETFKGRATITADKSTSTAYMELSSLRSEDTAVYYCARHEERDYYGYYAMDYWGQGTTVTVSS
VL: DIQMTQSPSSLSASVGDRVTITCSASSSISSNYLHWYQQKPGKVPKLLIYRTSNLASGVPSRFSGSGSGTDYTLTISSLQPEDVATYYCQQGSSIPRFTSGGGTKVEIK
B5: Lc1/Hc2A (antibody, V domains shown)
VH: QVQLVQSGAEVKKPGSSVKVSCKASGYTFTEYIIHWVRQAPGQGLEWIGWFYPESGSVKYNEAFKGRATITADKSTSTAYMELSSLRSEDTAVYYCARHEERDYYGYYAMDYWGQGTTVTVSS
VL: DIQMTQSPSSLSASVGDRVTITCSASSSISSNYLHWYQQKPGKVPKLLIYRTSNLASGVPSRFSGSGSGTDYTLTISSLQPEDVATYYCQQGSSIPRFTSGGGTKVEIK
B6: Lc1/Hc1S (antibody, V domains shown)
VH: QVQLVQSGAEVKKPGSSVKVSCKASGYTFTEYIIHWVRQAPGQGLEWIGWFYPESGSVKYSETFKGRATLTADKSTSTAYMELSSLRSEDTAVYYCARHEERDYYGYYAMDYWGQGTTVTVSS
VL: DIQMTQSPSSLSASVGDRVTITCSASSSISSNYLHWYQQKPGKVPKLLIYRTSNLASGVPSRFSGSGSGTDYTLTISSLQPEDVATYYCQQGSSIPRFTSGGGTKVEIK
B7: Lc2/Hc2G (antibody, V domains shown)
VH: QVQLVQSGAEVKKPGSSVKVSCKASGYTFTEYIIHWVRQAPGQGLEWIGWFYPESGSVKYNEGFKGRATITADKSTSTAYMELSSLRSEDTAVYYCARHEERDYYGYYAMDYWGQGTTVTVSS
VL: DIQMTQSPSSLSASVGDRVIITCSASSSISSNYLHWYQQKPGKVPKLLIYRTSNLASGVPSRFSGSGSGTDYTLTISSLQPEDVATYYCQQGSSIPRFTSGGGTKVEIK
B8: Lc1/Hc2S (antibody, V domains shown)
VH: QVQLVQSGAEVKKPGSSVKVSCKASGYTFTEYIIHWVRQAPGQGLEWIGWFYPESGSVKYSETFKGRATITADKSTSTAYMELSSLRSEDTAVYYCARHEERDYYGYYAMDYWGQGTTVTVSS
VL: DIQMTQSPSSLSASVGDRVTITCSASSSISSNYLHWYQQKPGKVPKLLIYRTSNLASGVPSRFSGSGSGTDYTLTISSLQPEDVATYYCQQGSSIPRFTSGGGTKVEIK
B9: Lc1/Hc1G (antibody, V domains shown)
VH: QVQLVQSGAEVKKPGSSVKVSCKASGYTFTEYIIHWVRQAPGQGLEWIGWFYPESGSVKYNEGFKGRATLTADKSTSTAYMELSSLRSEDTAVYYCARHEERDYYGYYAMDYWGQGTTVTVSS
VL: DIQMTQSPSSLSASVGDRVTITCSASSSISSNYLHWYQQKPGKVPKLLIYRTSNLASGVPSRFSGSGSGTDYTLTISSLQPEDVATYYCQQGSSIPRFTSGGGTKVEIK
B10: Lc2/Hc2A (antibody, V domains shown)
VH: QVQLVQSGAEVKKPGSSVKVSCKASGYTFTEYIIHWVRQAPGQGLEWIGWFYPESGSVKYNEAFKGRATITADKSTSTAYMELSSLRSEDTAVYYCARHEERDYYGYYAMDYWGQGTTVTVSS
VL: DIQMTQSPSSLSASVGDRVIITCSASSSISSNYLHWYQQKPGKVPKLLIYRTSNLASGVPSRFSGSGSGTDYTLTISSLQPEDVATYYCQQGSSIPRFTSGGGTKVEIK
B11: Lc2/Hc1A (antibody, V domains shown)
VH: QVQLVQSGAEVKKPGSSVKVSCKASGYTFTEYIIHWVRQAPGQGLEWIGWFYPESGSVKYNEAFKGRATLTADKSTSTAYMELSSLRSEDTAVYYCARHEERDYYGYYAMDYWGQGTTVTVSS
VL: DIQMTQSPSSLSASVGDRVIITCSASSSISSNYLHWYQQKPGKVPKLLIYRTSNLASGVPSRFSGSGSGTDYTLTISSLQPEDVATYYCQQGSSIPRFTSGGGTKVEIK
B12: Lc1/Hc1A (antibody, V domains shown)
VH: QVQLVQSGAEVKKPGSSVKVSCKASGYTFTEYIIHWVRQAPGQGLEWIGWFYPESGSVKYNEAFKGRATLTADKSTSTAYMELSSLRSEDTAVYYCARHEERDYYGYYAMDYWGQGTTVTVSS
VL: DIQMTQSPSSLSASVGDRVTITCSASSSISSNYLHWYQQKPGKVPKLLIYRTSNLASGVPSRFSGSGSGTDYTLTISSLQPEDVATYYCQQGSSIPRFTSGGGTKVEIK
B13: Lc2/Hc2 (antibody, V domains shown)
VH: QVQLVQSGAEVKKPGSSVKVSCKASGYTFTEYIIHWVRQAPGQGLEWIGWFYPESGSVKYNETFKGRATITADKSTSTAYMELSSLRSEDTAVYYCARHEERDYYGYYAMDYWGQGTTVTVSS
VL: DIQMTQSPSSLSASVGDRVIITCSASSSISSNYLHWYQQKPGKVPKLLIYRTSNLASGVPSRFSGSGSGTDYTLTISSLQPEDVATYYCQQGSSIPRFTSGGGTKVEIK
B14: Lc2/Hc1 (antibody, V domains shown)
VH: QVQLVQSGAEVKKPGSSVKVSCKASGYTFTEYIIHWVRQAPGQGLEWIGWFYPESGSVKYNETFKGRATLTADKSTSTAYMELSSLRSEDTAVYYCARHEERDYYGYYAMDYWGQGTTVTVSS
VL: DIQMTQSPSSLSASVGDRVIITCSASSSISSNYLHWYQQKPGKVPKLLIYRTSNLASGVPSRFSGSGSGTDYTLTISSLQPEDVATYYCQQGSSIPRFTSGGGTKVEIK
B15: ITGa3-VM2 (antibody, V domains shown)
VH: EVQLQESGAELVKPGTSVRLSCKASGYTFTEYIIHWVKQRSGQGLEWIGWFYPESGSVKYNETFKGRATLTADKSSSTVYMELSRLTSEDSAVYFCARHEERDYYGYYAMDYWGQGTSVTVSS
VL: DIVMTQTPTTLAASPGEKIIITCSASSSISSNYLHWYQQKPGFSPKLLIYRTSNLASGVPARFSGSGSGTSYSLTIGTMEAEDVATYYCQQGSSIPRFTSGSGTKLEIK

The target of this test is T1, human ITGa3 protein. Put plainly: ELISA; apparent Kd. Background: ELISA stands for enzyme-linked immunosorbent assay.
In the case of B1, the Kd amounted to 0.18 nM.

Regarding B2, the Kd amounted to 0.24 nM.

Regarding B3, the Kd was found to be 0.18 nM.

With B4, the Kd came out at 0.07 nM.

As to B5, the Kd was 0.27 nM.

Consider B6, for which the Kd turned out to be 0.18 nM.

Turning to B7, the Kd worked out at 0.18 nM.

In the case of B8, the Kd worked out at 0.32 nM.

B9: the Kd was found to be 0.23 nM.

On to B10, for which the Kd is 0.24 nM.

With B11, the Kd was 0.23 nM.

Regarding B12, the Kd is 0.32 nM.

For B13, the Kd was 0.1 nM.

As to B14, the Kd was 0.18 nM.

For B15, the Kd was determined as 0.23 nM.
